Experimental findings from publication PMC3364743 are described below.

The target of the experiment is T1, CAV1–mCherry (caveolin-1 fused to mCherry), Q03135.
T1 chain: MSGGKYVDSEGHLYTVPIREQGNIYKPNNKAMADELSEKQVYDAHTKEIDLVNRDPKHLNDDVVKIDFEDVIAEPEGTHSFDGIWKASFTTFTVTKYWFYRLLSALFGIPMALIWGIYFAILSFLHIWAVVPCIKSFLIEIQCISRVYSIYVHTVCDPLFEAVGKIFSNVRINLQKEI
As to the kind of experiment: FRET or BRET. The settings on record: remark: other sources report otherwise. In general terms: In BRET a luciferase serves as donor, and the signal depends on an acceptor being close.

B1: CAV1–mCherry (caveolin-1 fused to mCherry), Q03135 1-178 (natural protein)
chain: MSGGKYVDSEGHLYTVPIREQGNIYKPNNKAMADELSEKQVYDAHTKEIDLVNRDPKHLNDDVVKIDFEDVIAEPEGTHSFDGIWKASFTTFTVTKYWFYRLLSALFGIPMALIWGIYFAILSFLHIWAVVPCIKSFLIEIQCISRVYSIYVHTVCDPLFEAVGKIFSNVRINLQKEI
On to B1, for which the FRET efficiency was 48%.
